Measurements as given in patent US20170204142A1.

Assays:
[1] = target: H1HA10 (influenza A virus H1N1 A/Puerto Rico/8/34) (UniProt A4GCI6)
[2] = target: full-length H1N1 A/Puerto Rico/8/34 recombinant HA (rHA) (influenza A virus H1N1 A/Puerto Rico/8/34) (UniProt P03452)

| Substance | Kd [1] [nM] | koff [1] [s⁻¹] | kon [1] [M⁻¹ s⁻¹] | Kd [2] [nM] | koff [2] [s⁻¹] | kon [2] [M⁻¹ s⁻¹] |
| --- | --- | --- | --- | --- | --- | --- |
| CR6261 IgG (antibody) | 315 | 0.00785 | 24900 | 8.9 | 0.00258 | 289000 |
| FI6v3-scFv |  |  |  | 8.8 | 0.00216 | 245000 |
| F10-scFv |  |  |  | 2.9 | 0.00121 | 415000 |
